These results are taken from US20050148035A1 (Genentech, published 2005).

A word on the IC50: it is the concentration at which inhibition is half-maximal.

The target of one experiment is T1, miniBP-3 fusion protein (human).
T1 construct: Uncleaved fusion, made in E. coli BL21 from pET21a and purified on IgG Sepharose
Briefly: BIAcore competition, bp15 preincubated with miniBP-3 fusion, injected over immobilised biotinylated IGF-I. (SPR reads the build-up and loss of mass on a sensor chip optically.)

For experiment [1], the target named is T2, native-sequence human IGFBP-3 (human, UniProt P17936 28-291).
T2 construct: also called wild-type IGFBP-3; full-length IGFBP-3
Briefly: BIAcore competition: bp15 (15 nM to 100 µM) pre-incubated 1 h with 20 nM IGFBP-3, injected over immobilised biotinylated IGF-II (bIGF-II, triangles); blocked ligand IGF-II; one-site competition fit.

Experiment [2] addresses T2, native-sequence human IGFBP-3. Nature of the experiment: BIAcore competition: bp15 (15 nM to 100 µM) pre-incubated 1 h with 20 nM IGFBP-3, injected over immobilised biotinylated IGF-I (bIGF-I, squares); blocked ligand IGF-I; one-site competition fit.

B1: peptide bp15 (peptide)
peptide: SEEVCWPVAEWYLCN
notes: Identified by phage display (Lowman et al. 1998); also called bp15 peptide
Consider B1, for which, in the experiment with miniBP-3 fusion protein, the binding result is recorded as “binds”. Also, the IC50 in experiment [1] stood at 147 nM; in experiment [2], 105 nM.
